The values that follow come from patent US20210261648A1 (published 2021).

Residue numbers refer to the chain shown, from its start.

Sequences and labels used below:
T1: FcγRIIa type H extracellular domain with C-terminal His tag (human, UniProt P12318 34-217)
T1 construct: extracellular domain; also called FcγRIIaH; FcgRIIaH; not shown: His tag attached to the C terminus
T1 sequence (looked up): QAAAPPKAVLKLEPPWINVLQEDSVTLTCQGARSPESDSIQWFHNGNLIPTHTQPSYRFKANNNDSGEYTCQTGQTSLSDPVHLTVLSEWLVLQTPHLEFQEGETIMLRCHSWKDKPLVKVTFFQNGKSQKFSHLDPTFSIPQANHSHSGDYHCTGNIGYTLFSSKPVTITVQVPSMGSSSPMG

T2: FcγRIIb extracellular domain with C-terminal His tag (human, UniProt P31994 43-217)
T2 construct: extracellular domain; For crystallography it was expressed with kifunensine and trimmed with Endo F1; also called FcgRIIb; FcγRIIb extracellular region; not shown: His tag attached to the C terminus
T2 sequence (looked up): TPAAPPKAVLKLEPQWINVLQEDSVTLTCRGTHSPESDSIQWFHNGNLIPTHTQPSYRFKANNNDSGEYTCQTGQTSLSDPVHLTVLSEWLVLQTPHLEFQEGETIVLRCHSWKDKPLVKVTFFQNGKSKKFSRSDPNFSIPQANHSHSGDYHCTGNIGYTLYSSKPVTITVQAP

T3: FcγRIIa type H (human, UniProt P12318 34-217)
T3 construct: extracellular domain; also called FcγRIIaH; FcgRIIaH
T3 sequence (looked up): T1 sequence (looked up)

T4: FcγRIIa type R (human, UniProt P12318 34-217)
T4 chain: T1 sequence (looked up) with H134R

T5: FcγRIIb (human, UniProt P31994 43-217)
T5 construct: extracellular domain; also called FcgRIIb; CD32B
T5 sequence (looked up): T2 sequence (looked up)

B1: IL6R-BP106/IL6R-L (antibody, human IgG1, kappa)
heavy: QVQLQESGPGLVKPSETLSLTCAVSGHSISHDHAWSWVRQPPGEGLEWIGFISYSGITNYNPSLQGRVTISRDNSKNTLYLQMNSLRAEDTAVYYCARSLARTTAMDYWGEGTLVTVSSASTKGPSVFPLAPSSKSTSGGTAALGCLVKDYFPEPVTVSWNSGALTSGVHTFPAVLQSSGLYSLSSVVTVPSSSLGTQTYICNVNHKPSNTKVDKKVEPKSCDKTHTCPPCPAPELLGGDSVFLFPPKPKDTLMISRTPEVTCVVVDVSDEDPEVKFNWYVDGVEVHNAKTKPREEQYNSTYRVVSVLTVLHQDWLNGKEYKCKVSNKALPAPIEKTISKAKGQPREPQVYTLPPSRDELTKNQVSLTCLVKGFYPSDIAVEWESNGQPENNYKTTPPVLDSDGSFFLYSKLTVDKSRWQQGNVFSCSVMHEALHNHYTQESLSLSP
light: not shown
notes: Alterations introduced into IL6R-B3
B2: IL6R-BP100/IL6R-L (antibody, human IgG1, kappa)
heavy: B1 heavy with S269A, D270H
light: not shown
notes: as for B1
B3: IL6R-2B128/IL6R-L (antibody, human IgG1, kappa)
heavy: B1 heavy with D270H, Y298D
light: not shown
notes: as for B1
B4: IL6R-BP078/IL6R-L (antibody, human IgG1, kappa)
heavy: B1 heavy with D270H, A332M
light: not shown
notes: as for B1
B5: IL6R-BP103/IL6R-L (antibody, human IgG1, kappa)
heavy: B1 heavy with S269V, D270H
light: not shown
notes: as for B1
B6: IL6R-BP102/IL6R-L (antibody, human IgG1, kappa)
heavy: B1 heavy with S269Q, D270H
light: not shown
notes: as for B1
B7: IL6R-2B172/IL6R-L (antibody, human IgG1, kappa)
heavy: B1 heavy with D270H, V325M
light: not shown
notes: as for B1
B8: IL6R-2B169/IL6R-L (antibody, human IgG1, kappa)
heavy: B1 heavy with D270H, V325I
light: not shown
notes: as for B1
B9: IL6R-BP116/IL6R-L (antibody, human IgG1, kappa)
heavy: B1 heavy with D270H, K328T
light: not shown
notes: as for B1
B10: IL6R-2B171/IL6R-L (antibody, human IgG1, kappa)
heavy: B1 heavy with D270H, V325L
light: not shown
notes: as for B1
B11: IL6R-BP110/IL6R-L (antibody, human IgG1, kappa)
heavy: B1 heavy with D270N
light: not shown
notes: as for B1
B12: IL6R-BP112/IL6R-L (antibody, human IgG1, kappa)
heavy: B1 heavy with D270H, P273G
light: not shown
notes: as for B1
B13: IL6R-2B002/IL6R-L (antibody, human IgG1, kappa)
heavy: B1 heavy with E235D, D270H
light: not shown
notes: as for B1
B14: IL6R-BP107/IL6R-L (antibody, human IgG1, kappa)
heavy: B1 heavy with D270E
light: not shown
notes: as for B1
B15: IL6R-BP536/IL6R-L (antibody, human IgG1, kappa)
heavy: B1 heavy with E235D, G239D, V266I, D270E, P273G, Y298D, A329G, A332R, P398M
light: not shown
notes: Alterations in EU numbering, introduced into IL6R-B3
B16: IL6R-BP540/IL6R-L (antibody, human IgG1, kappa)
heavy: B1 heavy with G239D, V266I, D270E, P273G, E274P, Y298D, A332R
light: not shown
notes: as for B15
B17: IL6R-BP538/IL6R-L (antibody, human IgG1, kappa)
heavy: B1 heavy with G239D, V266I, D270E, P273G, A332R
light: not shown
notes: as for B15
B18: IL6R-BP551/IL6R-L (antibody, human IgG1, kappa)
heavy: B1 heavy with G239D, V266I, D270E, P273G, E274D, Y298D, A332R
light: not shown
notes: as for B15
B19: IL6R-BP556/IL6R-L (antibody, human IgG1, kappa)
heavy: B1 heavy with G239D, V266I, S269G, D270E, P273G, Y298D, A332R
light: not shown
notes: as for B15
B20: IL6R-BP550/IL6R-L (antibody, human IgG1, kappa)
heavy: B1 heavy with G239D, V266I, S269G, D270E, P273G, E274D, Y298D, A332R
light: not shown
notes: as for B15
B21: IL6R-BP539/IL6R-L (antibody, human IgG1, kappa)
heavy: B1 heavy with G239D, V266I, S269G, D270E, P273G, E274P, Y298D, A332R
light: not shown
notes: as for B15

T6 sequence (P12314 16-292): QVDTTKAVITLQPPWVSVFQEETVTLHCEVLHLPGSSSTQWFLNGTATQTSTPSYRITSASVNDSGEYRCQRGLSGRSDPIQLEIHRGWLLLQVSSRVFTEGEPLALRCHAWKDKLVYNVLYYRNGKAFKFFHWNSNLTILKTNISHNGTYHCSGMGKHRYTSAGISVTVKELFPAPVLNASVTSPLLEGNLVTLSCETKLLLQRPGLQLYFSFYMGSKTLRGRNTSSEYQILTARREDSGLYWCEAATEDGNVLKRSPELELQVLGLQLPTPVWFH

One assay addresses T1, FcγRIIa type H extracellular domain …. Description: SPR binding amount, relative to IL6R-BF648/IL6R-L.
For the molecule B1, the “relative binding activity (IL6R-BF648/IL6R-L = 100)” value (shortened to “relative binding activity”) amounted to 110.

For the molecule B2, the “relative binding activity” value was 128.

For B3, the “relative binding activity” value stood at 37.

As for B4, the “relative binding activity” value came to 89.

Regarding B5, the “relative binding activity” value was 69.

B6: the “relative binding activity” value is 66.

As to B7, the “relative binding activity” value came to 179.

Regarding B8, the “relative binding activity” value was 83.

Consider B9, for which the “relative binding activity” value was 110.

Take B10: the “relative binding activity” value turned out to be 115.

Turning to B11, the “relative binding activity” value is 127.

With B12, the “relative binding activity” value stood at 113.

As for B13, the “relative binding activity” value turned out to be 147.

As for B14, the “relative binding activity” value is 114.

A further assay concerns the target T2, FcγRIIb extracellular domain with …. The assay is described as follows: SPR binding amount, relative to IL6R-BF648/IL6R-L.
Consider B1, for which the “relative binding activity” value stood at 116.

B2: the “relative binding activity” value was 110.

Consider B3, for which the “relative binding activity” value turned out to be 103.

On to B4, for which the “relative binding activity” value worked out at 105.

For the molecule B5, the “relative binding activity” value came out at 107.

As for B6, the “relative binding activity” value was 106.

B7: the “relative binding activity” value worked out at 132.

In the case of B8, the “relative binding activity” value was determined as 104.

In the case of B9, the “relative binding activity” value is 108.

For B10, the “relative binding activity” value was determined as 113.

As for B11, the “relative binding activity” value came to 101.

As to B12, the “relative binding activity” value is 157.

For B13, the “relative binding activity” value is 116.

With B14, the “relative binding activity” value was determined as 118.

A further assay has as its target T6, FcγRIa extracellular domain with C-terminal His tag (human, UniProt P12314 16-292).
T6 construct: also called FcgRIa; not shown: His tag attached to the C terminus
Description: SPR binding amount, relative to IL6R-BF648/IL6R-L.
On to B1, for which the “relative binding activity” value came out at 127.

Turning to B2, the “relative binding activity” value is 121.

As to B3, the “relative binding activity” value amounted to 95.

Regarding B4, the “relative binding activity” value was determined as 106.

In the case of B5, the “relative binding activity” value is 56.

Regarding B6, the “relative binding activity” value came out at 104.

B7: the “relative binding activity” value is 140.

Turning to B8, the “relative binding activity” value came to 73.

As for B9, the “relative binding activity” value came out at 110.

With B10, the “relative binding activity” value was 116.

In the case of B11, the “relative binding activity” value was determined as 105.

As for B12, the “relative binding activity” value is 119.

For the molecule B13, the “relative binding activity” value was found to be 118.

With B14, the “relative binding activity” value amounted to 123.

The target of another assay is T3, FcγRIIa type H. The assay is described as follows: SPR (Biacore), captured antibody, soluble FcγR.
In the case of B15, the Kd turned out to be 1.3 µM.

The molecule B16 returned a Kd of 4.6 µM.

B17 returned a Kd of 3 µM.

Take B18: the dissociation constant (Kd) was found to be 2.8 µM.

For the molecule B19, the Kd is 5.8 µM.

In turn, B20 displayed a Kd of 5 µM.

As to B21, the Kd is 5.6 µM.

Another assay concerns the target T4, FcγRIIa type R. Description: SPR (Biacore), captured antibody, soluble FcγR.
As for B15, the affinity, expressed as Kd, was 79 nM.

In turn, B16 returned a Kd of 210 nM.

B17: the Kd came to 200 nM.

B18 displayed a Kd of 250 nM.

In turn, B19 registered a Kd of 300 nM.

In the case of B20, the Kd amounted to 340 nM.

In turn, B21 displayed a Kd of 330 nM.

Another assay concerns the target T5, FcγRIIb. The assay is described as follows: SPR (Biacore), captured antibody, soluble FcγR.
Regarding B15, the affinity, expressed as Kd, was 3 nM.

B16: the Kd amounted to 5.7 nM.

In turn, B17 displayed a Kd of 5.3 nM.

Consider B18, for which the Kd is 6.4 nM.

For the molecule B19, the Kd is 8.4 nM.

The molecule B20 displayed a Kd of 7.6 nM.

The molecule B21 yielded a Kd of 8.4 nM.

In the next assay the target is T7, FcγRIa (human, UniProt P12314 16-292).
T7 construct: Whole entry named; also called FcgRIa; CD64A
T7 sequence (P12314 16-292): as above
The assay is described as follows: SPR (Biacore), captured antibody, soluble FcγR.
In the case of B15, the affinity, expressed as Kd, was 8.9 nM.

B16 had a Kd of 96 nM.

B17 gave a Kd of 55 nM.

The molecule B18 displayed a Kd of 32 nM.

B19 returned a Kd of 43 nM.

Take B20: the Kd was 25 nM.

As to B21, the Kd turned out to be 64 nM.

For another assay, the target named is T4, FcγRIIa type R. Description: SPR (Biacore); parent = IL6R-B3/IL6R-L.
For the molecule B15, the “KD(IIaR) of the parent polypeptide/KD(IIaR) of the altered polypeptide” value (from here on “KD(IIaR)”) stood at 13.9 fold.

For the molecule B16, the “KD(IIaR)” value came to 5.2 fold.

As for B17, the “KD(IIaR)” value was 5.4 fold.

B18: the “KD(IIaR)” value was determined as 4.5 fold.

B19: the “KD(IIaR)” value came to 3.7 fold.

As to B20, the “KD(IIaR)” value was determined as 3.3 fold.

For B21, the “KD(IIaR)” value was found to be 3.4 fold.

For the next assay, the target named is T5, FcγRIIb. The assay is described as follows: SPR (Biacore); parent = IL6R-B3/IL6R-L.
Regarding B15, the “KD(IIb) of the parent polypeptide/KD(IIb) of the altered polypeptide” value (“KD(IIb)” for short) is 1040 fold.

As to B16, the “KD(IIb)” value worked out at 541 fold.

For the molecule B17, the “KD(IIb)” value came out at 587 fold.

As for B18, the “KD(IIb)” value worked out at 482 fold.

Consider B19, for which the “KD(IIb)” value amounted to 370 fold.

Turning to B20, the “KD(IIb)” value came out at 406 fold.

B21: the “KD(IIb)” value amounted to 369 fold.
